Source: publication PMC9247205

Target: GST-SF1KQ (EhSF1 KH-QUA2 domain) (Entamoeba histolytica) (UniProt C4M4V3)
Assay: EMSA
Details: EMSA: 50 ug protein (Fig 4), 200 fmol probe, 20 min (+10 min with U2 snRNA); binding buffer as in Ortuno-Pineda 2012, not given; UV crosslinking at pH 7.6 or …

## AACUUUUAUUU [E. histolytica RabX13 intron BS probe (P+)]
  binding signal: 50%

## UAUACUAACAA [yeast canonical BS probe (C+)]
  binding signal: 50%
